One test has as its target T1, P9-AA.
T1 chain: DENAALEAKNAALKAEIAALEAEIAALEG
Description: two-hybrid library CCmax.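 Also: natural log of median RNA to DNA barcode read ratio; higher means stronger binding.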 Conditions: mean of both orientations.

The target of another test is T2, P10-AA.
T2 chain: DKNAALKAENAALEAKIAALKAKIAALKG
Description: two-hybrid library CCmax.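 Also: natural log of median RNA to DNA barcode read ratio; higher means stronger binding.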 To be noted: mean of both orientations.

Another test has as its target T3, O8-AA.
T3 chain: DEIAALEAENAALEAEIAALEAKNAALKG
The test can be described thus: two-hybrid library CCmax.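 Also: natural log of median RNA to DNA barcode read ratio; higher means stronger binding.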

The next test addresses T4, 4H3625-AA.
T4 chain: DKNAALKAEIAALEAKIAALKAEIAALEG
Description: two-hybrid library CCmax.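 Also: natural log of median RNA to DNA barcode read ratio; higher means stronger binding.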 Conditions: mean of both orientations.

In the next test the target is T5, 4H87-AA.
T5 chain: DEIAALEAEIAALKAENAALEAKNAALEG
Description: two-hybrid library CCmax.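 Also: natural log of median RNA to DNA barcode read ratio; higher means stronger binding.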 To be noted: mean of both orientations.

The next test addresses T6, 4H390-AA.
T6 chain: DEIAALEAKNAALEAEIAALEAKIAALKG
Description: two-hybrid library CCmax.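 Also: natural log of median RNA to DNA barcode read ratio; higher means stronger binding.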 To be noted: mean of both orientations.

The target of a further test is T7, 4H510-AA.
T7 chain: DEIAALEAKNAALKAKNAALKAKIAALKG
The test can be described thus: two-hybrid library CCmax. Conditions: mean of both orientations.

The next test has as its target T8, 4H775-AA.
T8 chain: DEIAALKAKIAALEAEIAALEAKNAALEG
Description: two-hybrid library CCmax. To be noted: mean of both orientations.

Another test has as its target T9, 4H2985-AA.
T9 chain: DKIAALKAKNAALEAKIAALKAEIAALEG
Description: two-hybrid library CCmax. Conditions: mean of both orientations.

A further test deals with T10, 4H2873-AA.
T10 chain: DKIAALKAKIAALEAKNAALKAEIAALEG
The test can be described thus: two-hybrid library CCmax.

The next test deals with T11, 4H3409-AA.
T11 chain: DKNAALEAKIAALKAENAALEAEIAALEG
The test can be described thus: two-hybrid library CCmax. To be noted: mean of both orientations.

The target of another test is T12, 4H3134-AA.
T12 chain: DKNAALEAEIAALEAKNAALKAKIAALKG
Description: two-hybrid library CCmax. Conditions: mean of both orientations.

The target of the next test is T13, 4H3940-AA.
T13 chain: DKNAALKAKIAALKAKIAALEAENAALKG
Description: two-hybrid library CCmax. Conditions: mean of both orientations.

A further test concerns the target T14, 4H816-AA.
T14 chain: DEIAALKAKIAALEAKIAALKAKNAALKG
Description: two-hybrid library CCmax. Conditions: mean of both orientations.

A further test addresses T15, 4H3381-bA.
T15 chain: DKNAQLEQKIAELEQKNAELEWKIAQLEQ
The test can be described thus: two-hybrid library CCNG1.

The target in the next test is T16, 4H796-bA.
T16 chain: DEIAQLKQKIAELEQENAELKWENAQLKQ
Description: two-hybrid library CCNG1.

A further test concerns the target T17, 4H730-bA.
T17 chain: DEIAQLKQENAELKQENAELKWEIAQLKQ
Description: two-hybrid library CCNG1.

For the next test, the target named is T18, 4H3364-bA.
T18 chain: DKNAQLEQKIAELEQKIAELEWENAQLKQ
Description: two-hybrid library CCNG1.

The target of a further test is T19, 4H56-bA.
T19 chain: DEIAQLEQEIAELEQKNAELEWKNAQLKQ
Description: two-hybrid library CCNG1.

The next test has as its target T20, 4H932-bA.
T20 chain: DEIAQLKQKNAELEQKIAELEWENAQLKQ
Description: two-hybrid library CCNG1.

A further test addresses T21, 4H349-bA.
T21 chain: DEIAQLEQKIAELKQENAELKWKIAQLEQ
Description: two-hybrid library CCNG1.

The target in another test is T22, 4H949-bA.
T22 chain: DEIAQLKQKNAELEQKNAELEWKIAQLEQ
Description: two-hybrid library CCNG1.

For another test, the target named is T23, 4H3297-bA.
T23 chain: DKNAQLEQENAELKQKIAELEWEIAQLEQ
The test can be described thus: two-hybrid library CCNG1.

The target in a further test is T24, 4H3041-bA.
T24 chain: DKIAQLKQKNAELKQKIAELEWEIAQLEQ
The test can be described thus: two-hybrid library CCNG1.

B1: O8-AA (peptide)
chain: DEIAALEAENAALEAEIAALEAKNAALKG
Turning to B1, the interaction score is -1.26 in the test with P9-AA, -0.856 with P10-AA and -1.16 in the test with O8-AA.

B2: 4H2873-AA (peptide)
chain: DKIAALKAKIAALEAKNAALKAEIAALEG
On to B2, for which the interaction score in the test with 4H3625-AA is 1.8; with 4H87-AA, 0.464; in the test with 4H390-AA, 2.21; with 4H510-AA, -0.174; with 4H775-AA, -0.187; with 4H2985-AA it was 2.29. Also, the interaction score with 4H2873-AA was 0.429; with 4H3409-AA, 0.324; with 4H3134-AA it was 1.06; in the test with 4H3940-AA, -1.33; with 4H816-AA, -0.999.

B3: 4H3041-bA (peptide)
chain: DKIAQLKQKNAELKQKIAELEWEIAQLEQ
For the molecule B3, the interaction score with 4H3381-bA was -1.17; in the test with 4H796-bA, -1.16; in the test with 4H730-bA it was -1.65; with 4H3364-bA, -1; in the test with 4H56-bA it was 0.805; with 4H932-bA, -0.693. The interaction score with 4H349-bA was -1.44; with 4H949-bA, -1.15; with 4H3297-bA it was -0.21; with 4H3041-bA, 0.985.

For the origin of these results see article PMC10397247.
